Assay results published in article PMC4587348 (Archives of biochemistry and biophysics, 2015).

What was measured:
[1] = biological target: ScHIcDH (homoisocitrate dehydrogenase from Saccharomyces cerevisiae) (Saccharomyces cerevisiae, UniProt P40495, D271N); test: initial rate, NADH formation at […] nm, dead-end inhibition; type: biochemical
Tyr150 = test: kinetics; conditions: cited from earlier work
Lys206 = test: kinetics; conditions: Steady-state turnover at saturating reactants (V/Et); cited from earlier work

Chain of ScHIcDH (homoisocitrate dehydrogenase from Saccharomyces cerevisiae) (P40495 23-371 D271N): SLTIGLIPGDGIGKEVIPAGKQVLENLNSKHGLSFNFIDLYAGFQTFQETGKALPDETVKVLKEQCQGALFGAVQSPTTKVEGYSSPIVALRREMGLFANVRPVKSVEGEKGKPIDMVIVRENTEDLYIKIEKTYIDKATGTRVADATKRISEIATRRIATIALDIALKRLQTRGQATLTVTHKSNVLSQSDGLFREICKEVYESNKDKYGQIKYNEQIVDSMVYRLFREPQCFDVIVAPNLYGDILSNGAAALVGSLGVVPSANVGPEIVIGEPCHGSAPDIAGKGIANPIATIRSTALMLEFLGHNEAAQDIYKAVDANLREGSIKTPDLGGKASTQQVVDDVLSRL

With CC(=O)c1ccc[n+]([C@@H]2O[C@H](COP(=O)([O-])OP(=O)(O)OC[C@H]3O[C@@H](n4cnc5c(N)ncnc54)[C@H](O)[C@@H]3OP(=O)(O)O)[C@@H](O)[C@H]2O)c1 [3-AcPyrADP] the Ki [1] was 0.34 ± 0.05 mM.

For O=C(O)CS[C@H](C(=O)O)[C@@H](O)C(=O)O [Thiahomoisocitrate], the Ki [1] was 20 ± 3 mM.

For “Homoisocitrate dehydrogenase (ScHIcDH) (Saccharomyces cerevisiae)”, the pKa (Tyr150; Steady-state turnover. V profile: enzyme saturated with NAD and MgHIc.) is given as 9.5.

For “Homoisocitrate dehydrogenase (ScHIcDH) K206M mutant (Saccharomyces cerevisiae; K206M)”, the pKa (Tyr150; Steady-state turnover at saturating reactants (V/Et)) is listed as 9.5.

In the case of “Homoisocitrate dehydrogenase (ScHIcDH) Y150F mutant (Saccharomyces cerevisiae; Y150F)”, the pKa (Lys206) is given as 6.
